Results: US20240409629A1

Molecular target: human CLDN18.1 (human) (UniProt P56856)
Test: FACS, U2OS-CLDN18.1 cells, antibody at 200 nM

MFI: 6040
B1: IgG1 isotype control antibody (antibody, V domains shown)
VH: EVQLEQSGAELMKPGASVKISCKATGYTFTTYWIEWIKQRPGHSLEWIGEILPGSDSTYYNEKVKGKVTFTADASSNTAYMQLSSLTSEDSAVYYCARGDGFYVYWGQGTTLTVSS
VL: DIELTQSPATLSVTPGDSVSLSCRASQSISNNLHWYQQKSHESPRLLIKYTSQSMSGIPSRFSGSGSGTDFTLSINSVETEDFGVYFCQQSGSWPRTFGGGTKLDIKR
